# According to publication PMC3581772:
# T1: I59T human lysozyme (human) (UniProt P61626)
# T1 sequence: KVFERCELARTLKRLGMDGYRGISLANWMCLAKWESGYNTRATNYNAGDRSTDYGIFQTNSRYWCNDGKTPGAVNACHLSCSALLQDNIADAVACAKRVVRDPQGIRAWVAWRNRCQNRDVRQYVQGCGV
# B1: native α2-macroglobulin (natural protein)
# chain: SVSGKPQYMVLVPSLLHTETTEKGCVLLSYLNETVTVSASLESVRGNRSLFTDLEAENDVLHCVAFAVPKSSSNEEVMFLTVQVKGPTQEFKKRTTVMVKNEDSLVFVQTDKSIYKPGQTVKFRVVSMDENFHPLNELIPLVYIQDPKGNRIAQWQSFQLEGGLKQFSFPLSSEPFQGSYKVVVQKKSGGRTEHPFTVEEFVLPKFEVQVTVPKIITILEEEMNVSVCGLYTYGKPVPGHVTVSICRKYSDASDCHGEDSQAFCEKFSGQLNSHGCFYQQVKTKVFQLKRKEYEMKLHTEAQIQEEGTVVELTGRQSSEITRTITKLSFVKVDSHFRQGIPFFGQVRLVDGKGVPIPNKVIFIRGNEANYYSNATTDEHGLVQFSINTTNVMGTSLTVRVNYKDRSPCYGYQWVSEEHEEAHHTAYLVFSPSKSFVHLEPMSHELPCGHTQTVQAHYILNGGTLLGLKKLSFYYLIMAKGGIVRTGTHGLLVKQEDMKGHFSISIPVKSDIAPVARLLIYAVLPTGDVIGDSAKYDVENCLANKVDLSFSPSQSLPASHAHLRVTAAPQSVCALRAVDQSVLLMKPDAELSASSVYNLLPEKDLTGFPGPLNDQDNEDCINRHNVYINGITYTPVSSTNEKDMYSFLEDMGLKAFTNSKIRKPKMCPQLQQYEMHGPEGLRVGFYESDVMGRGHARLVHVEEPHTETVRKYFPETWIWDLVVVNSAGVAEVGVTVPDTITEWKAGAFCLSEDAGLGISSTASLRAFQPFFVELTMPYSVIRGEAFTLKATVLNYLPKCIRVSVQLEASPAFLAVPVEKEQAPHCICANGRQTVSWAVTPKSLGNVNFTVSAEALESQELCGTEVPSVPEHGRKDTVIKPLLVEPEGLEKETTFNSLLCPSGGEVSEELSLKLPPNVVEESARASVSVLGDILGSAMQNTQNLLQMPYGCGEQNMVLFAPNIYVLDYLNETQQLTPEIKSKAIGYLNTGYQRQLNYKHYDGSYSTFGERYGRNQGNTWLTAFVLKTFAQARAYIFIDEAHITQALIWLSQRQKDNGCFRSSGSLLNNAIKGGVEDEVTLSAYITIALLEIPLTVTHPVVRNALFCLESAWKTAQEGDHGSHVYTKALLAYAFALAGNQDKRKEVLKSLNEEAVKKDNSVHWERPQKPKAPVGHFYEPQAPSAEVEMTSYVLLAYLTAQPAPTSEDLTSATNIVKWITKQQNAQGGFSSTQDTVVALHALSKYGAATFTRTGKAAQVTIQSSGTFSSKFQVDNNNRLLLQQVSLPELPGEYSMKVTGEGCVYLQTSLKYNILPEKEEFPFALGVQTLPQTCDEPKAHTSFQISLSVSYTGSRSASNMAIVDVKMVSGFIPLKPTVKMLERSNHVSRTEVSSNHVLIYLDKVSNQTLSLFFTVLQDVPVRDLKPAIVKVYDYYETDEFAIAEYNAPCSKDLGNA
# Experiments:
# [1] = molecular target: amyloid β peptide Aβ(1–42) (UniProt P05067)
# [2] = molecular target: T1, I59T human lysozyme (human)
# [3] = molecular target: T1, I59T human lysozyme (human); remark: listed apart in the source
binder,measurement,setting,value
B1,"suppression of ThT signal at the endpoint of Aβ(1–42) fibril formation, Aβ-to-α2M 10:1",[1],> 80%
same,"decrease of ThT fluorescence at the endpoint of I59T lysozyme fibril formation, lysozyme-to-α2M 10:1",[2],> 90%
same,I59T lysozyme left soluble at the endpoint (SDS–PAGE of supernatants),[3],> 90%
